Experimental data reported in PMC9482650, “Quantitative fragmentomics allow affinity mapping of interactomes” (Nature Communications, 2022).

T1: LIN7B, Q9HAP6
T1 sequence (Q9HAP6 88-185, limits assumed, looked up): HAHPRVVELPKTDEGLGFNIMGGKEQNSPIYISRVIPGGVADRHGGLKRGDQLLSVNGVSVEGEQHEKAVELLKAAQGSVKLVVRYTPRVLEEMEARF

T2: GRIP1_5, Q9Y3R0
T2 sequence (Q9Y3R0 568-668, limits assumed, looked up): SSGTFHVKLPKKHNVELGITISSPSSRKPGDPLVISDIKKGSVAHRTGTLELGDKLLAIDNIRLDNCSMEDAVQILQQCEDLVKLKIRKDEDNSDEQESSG

T3: PARD3B_1, Q8TEW8
T3 sequence (Q8TEW8 196-299, limits assumed, looked up): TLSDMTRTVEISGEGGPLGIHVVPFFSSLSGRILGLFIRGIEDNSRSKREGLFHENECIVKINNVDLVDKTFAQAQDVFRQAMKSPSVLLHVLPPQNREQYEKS

T4: MPP2, Q14168
T4 sequence (Q14168 180-250, limits assumed, looked up): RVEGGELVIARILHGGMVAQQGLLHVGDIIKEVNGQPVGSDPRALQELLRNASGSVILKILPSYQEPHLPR

T5: ARHGAP21, Q5T5U3
T5 sequence (Q5T5U3 45-169, limits assumed, looked up): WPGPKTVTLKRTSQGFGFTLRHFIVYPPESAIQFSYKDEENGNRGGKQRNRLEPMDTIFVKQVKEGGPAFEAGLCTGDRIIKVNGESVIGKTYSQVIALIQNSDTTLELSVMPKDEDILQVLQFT

T6: ARHGEF11, O15085
T6 sequence (O15085 42-136, limits assumed, looked up): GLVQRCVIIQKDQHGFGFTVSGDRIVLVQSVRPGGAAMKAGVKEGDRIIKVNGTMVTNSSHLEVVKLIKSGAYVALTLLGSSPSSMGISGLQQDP

T7: DFNB31_3, Q9P202
T7 sequence (Q9P202 811-907, limits assumed, looked up): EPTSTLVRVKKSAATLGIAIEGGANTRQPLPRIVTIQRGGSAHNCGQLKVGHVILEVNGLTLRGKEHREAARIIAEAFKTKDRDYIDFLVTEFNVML

T8: PTPN13_1, Q12923
T8 sequence (Q12923 1088-1188, limits assumed, looked up): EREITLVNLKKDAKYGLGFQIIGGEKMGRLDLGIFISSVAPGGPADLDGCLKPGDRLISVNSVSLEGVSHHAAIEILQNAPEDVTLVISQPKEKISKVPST

T9: FRMPD1, Q5SYB0
T9 sequence (Q5SYB0 52-145, limits assumed, looked up): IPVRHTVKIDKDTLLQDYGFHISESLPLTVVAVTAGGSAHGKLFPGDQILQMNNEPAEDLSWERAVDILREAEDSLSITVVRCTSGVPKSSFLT

T10: NHERF3_3, Q5T2W1
T10 sequence (Q5T2W1 238-333, limits assumed, looked up): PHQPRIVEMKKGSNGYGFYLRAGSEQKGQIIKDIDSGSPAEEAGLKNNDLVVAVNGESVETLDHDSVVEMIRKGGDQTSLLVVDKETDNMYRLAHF

T11: LIN7C, Q9NUP9
T11 sequence (Q9NUP9 88-185, limits assumed, looked up): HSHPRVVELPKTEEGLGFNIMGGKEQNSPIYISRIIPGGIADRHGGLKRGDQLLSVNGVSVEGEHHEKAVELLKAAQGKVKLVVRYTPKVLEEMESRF

T12: PCLO, Q9Y6V0
T12 sequence (Q9Y6V0 4491-4600, limits assumed, looked up): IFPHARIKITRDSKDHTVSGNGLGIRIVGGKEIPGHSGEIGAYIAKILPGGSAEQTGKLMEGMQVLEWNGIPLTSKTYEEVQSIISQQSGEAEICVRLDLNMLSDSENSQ

B1: SEMA4C, Q9C0C4 (peptide)
chain: PDSNPEESSV
B2: KCNT1, Q5JUK3 (peptide)
chain: NPETRDETQL
B3: ITK, Q08881 (peptide)
chain: QLAEIAESGL
B4: DUSP10, Q9Y6W6 (peptide)
chain: PKLMGVETVV
B5: ADGRG1, Q9Y653 (peptide)
chain: SSGSTSSSRI
B6: GAGE12J, A6NER3 (peptide)
chain: PEEGKKQSQC

Tests used:
Test in all cases: holdup assay
Set-up in all cases: key: below the threshold = too weak to quantify, mostly under pKd 3.1 to 4
Settings in all cases: plain residues with an end cap or a label only (N-terminal biotin on a linker: ado-ado)
[1] = biological target: GRIP2_4, Q9C0E4
[2] = biological target: T1, LIN7B, Q9HAP6
[3] = biological target: NOS1, P29475
[4] = biological target: PARD3_3, Q8TEW0
[5] = biological target: T2, GRIP1_5, Q9Y3R0
[6] = biological target: T3, PARD3B_1, Q8TEW8
[7] = biological target: Inadl_8, Q8NI35
[8] = biological target: T4, MPP2, Q14168
[9] = biological target: GRID2IP_2, A4D2P6
[10] = biological target: T5, ARHGAP21, Q5T5U3
[11] = biological target: MAGI2_4, Q86UL8
[12] = biological target: GIPC2, Q8TF65
[13] = biological target: T6, ARHGEF11, O15085
[14] = biological target: DLG4_2, P78352
[15] = biological target: T7, DFNB31_3, Q9P202
[16] = biological target: IL16_3, Q14005
[17] = biological target: T8, PTPN13_1, Q12923
[18] = biological target: T9, FRMPD1, Q5SYB0
[19] = biological target: T10, NHERF3_3, Q5T2W1
[20] = biological target: Inadl_10, Q8NI35
[21] = biological target: NHERF4_2, Q86UT5
[22] = biological target: LNX1_1, Q8TBB1
[23] = biological target: T11, LIN7C, Q9NUP9
[24] = biological target: T12, PCLO, Q9Y6V0

Sequence of NOS1, P29475 (P29475 9-101): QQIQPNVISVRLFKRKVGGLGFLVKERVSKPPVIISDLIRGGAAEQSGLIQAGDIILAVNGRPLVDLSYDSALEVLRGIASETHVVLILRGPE
Sequence of DLG4_2, P78352 (P78352 155-259): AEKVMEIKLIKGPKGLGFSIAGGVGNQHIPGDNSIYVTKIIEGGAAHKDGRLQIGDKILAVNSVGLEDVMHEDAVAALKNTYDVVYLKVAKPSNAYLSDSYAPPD
Sequence of LNX1_1, Q8TBB1 (Q8TBB1 261-371): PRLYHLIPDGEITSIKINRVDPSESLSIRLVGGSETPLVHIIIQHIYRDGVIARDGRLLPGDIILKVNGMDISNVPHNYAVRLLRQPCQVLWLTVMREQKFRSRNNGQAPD
Sequence of PARD3_3, Q8TEW0 (Q8TEW0 582-685): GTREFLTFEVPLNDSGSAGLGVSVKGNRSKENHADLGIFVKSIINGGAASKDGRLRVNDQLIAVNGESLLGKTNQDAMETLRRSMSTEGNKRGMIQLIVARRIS
Sequence of GIPC2, Q8TF65 (Q8TF65 112-203): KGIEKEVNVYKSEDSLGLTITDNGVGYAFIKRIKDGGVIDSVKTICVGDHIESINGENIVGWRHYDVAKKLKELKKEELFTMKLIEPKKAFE
Sequence of GRIP2_4, Q9C0E4 (Q9C0E4 446-548): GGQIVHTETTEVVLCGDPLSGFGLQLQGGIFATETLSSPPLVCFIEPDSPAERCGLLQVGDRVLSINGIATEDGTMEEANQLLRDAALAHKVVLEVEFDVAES
Sequence of NHERF4_2, Q86UT5 (Q86UT5 220-308): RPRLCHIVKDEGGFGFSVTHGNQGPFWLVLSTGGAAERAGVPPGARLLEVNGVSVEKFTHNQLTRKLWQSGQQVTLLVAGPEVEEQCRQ
Sequence of Inadl_8, Q8NI35 (Q8NI35 1425-1530): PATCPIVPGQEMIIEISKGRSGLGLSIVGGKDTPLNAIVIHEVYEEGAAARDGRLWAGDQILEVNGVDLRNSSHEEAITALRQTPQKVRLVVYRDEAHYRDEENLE
Sequence of Inadl_10, Q8NI35 (Q8NI35 1673-1763): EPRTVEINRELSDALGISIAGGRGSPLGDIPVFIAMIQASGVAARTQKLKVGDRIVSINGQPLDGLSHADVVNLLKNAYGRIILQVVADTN
Sequence of MAGI2_4, Q86UL8 (Q86UL8 772-865): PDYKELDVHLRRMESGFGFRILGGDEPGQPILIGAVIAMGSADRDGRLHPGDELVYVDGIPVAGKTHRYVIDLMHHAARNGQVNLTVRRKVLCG
Sequence of IL16_3, Q14005 (Q14005 1107-1207): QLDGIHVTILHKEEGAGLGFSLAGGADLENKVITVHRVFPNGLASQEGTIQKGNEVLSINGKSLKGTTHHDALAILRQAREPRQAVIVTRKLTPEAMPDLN
Sequence of GRID2IP_2, A4D2P6 (A4D2P6 272-370): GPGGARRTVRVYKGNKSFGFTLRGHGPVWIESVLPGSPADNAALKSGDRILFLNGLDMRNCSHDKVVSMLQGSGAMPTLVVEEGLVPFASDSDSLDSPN

Binder	pKd [1]	pKd [2]	pKd [3]	pKd [4]	pKd [5]	pKd [6]	pKd [7]	pKd [8]	pKd [9]	pKd [10]	pKd [11]	pKd [12]	pKd [13]	pKd [14]	pKd [15]	pKd [16]	pKd [17]	pKd [18]	pKd [19]	pKd [20]	other results
B1	below the threshold	below the threshold	3.71	below the threshold	below the threshold	below the threshold	3.66	below the threshold	3.9	4.09	below the threshold	3.87	3.83	4.22	below the threshold	below the threshold	below the threshold	below the threshold	below the threshold	below the threshold	pKd [21]: below the threshold; pKd [22]: below the threshold; pKd [23]: 3.56; pKd [24]: below the threshold
B2	below the threshold	below the threshold	3.52	3.64	below the threshold	3.92	below the threshold	below the threshold	3.85	4.02	below the threshold	3.49	4.01	3.59	4.01	below the threshold	3.54	below the threshold	below the threshold	below the threshold	pKd [21]: below the threshold; pKd [22]: below the threshold; pKd [23]: 3.68; pKd [24]: below the threshold
B3	3.49	below the threshold	below the threshold	below the threshold	below the threshold	3.63	3.52	below the threshold	3.61	3.87	below the threshold	3.63	4.05	3.79	below the threshold	3.74	below the threshold	below the threshold	below the threshold	below the threshold	pKd [21]: 3.57; pKd [22]: 3.9; pKd [23]: below the threshold; pKd [24]: below the threshold
B4	below the threshold	below the threshold	4.08	3.75	below the threshold	below the threshold	3.5	below the threshold	below the threshold	3.73	4.14	below the threshold	4	5.47	below the threshold	below the threshold	3.48	below the threshold	below the threshold	below the threshold	pKd [21]: below the threshold; pKd [22]: 4.06; pKd [23]: 3.81; pKd [24]: below the threshold
B5	below the threshold	3.82	below the threshold	below the threshold	below the threshold	3.93	3.7	below the threshold	4.02	below the threshold	3.77	below the threshold	3.93	3.6	3.96	below the threshold	below the threshold	below the threshold	below the threshold	below the threshold	pKd [21]: below the threshold; pKd [22]: 3.66; pKd [23]: below the threshold; pKd [24]: below the threshold
B6	below the threshold	3.74	below the threshold	below the threshold	below the threshold	below the threshold	3.5	below the threshold	3.49	below the threshold	below the threshold	3.62	3.62	3.59	4	below the threshold	below the threshold	below the threshold	below the threshold	below the threshold	pKd [21]: below the threshold; pKd [22]: below the threshold; pKd [23]: below the threshold; pKd [24]: below the threshold
